The text below walks through data of publication PMC13137973.

Assay [1] concerns the target Biotinylated human TNFR2 protein (human) (UniProt P20333). As to the kind of experiment: BLI.
Assay [2] concerns the target human immunodeficiency virus 1 (HIV-1) (group M, subtype B, Isolate MN) gp120 Protein (HIV-1 (group M, subtype B, isolate MN)) (UniProt P05877). As to the kind of experiment: flow cytometry on cells.

Sequence of recombinant TNFR2 protein (soluble, exogenous) (P20333 23-257): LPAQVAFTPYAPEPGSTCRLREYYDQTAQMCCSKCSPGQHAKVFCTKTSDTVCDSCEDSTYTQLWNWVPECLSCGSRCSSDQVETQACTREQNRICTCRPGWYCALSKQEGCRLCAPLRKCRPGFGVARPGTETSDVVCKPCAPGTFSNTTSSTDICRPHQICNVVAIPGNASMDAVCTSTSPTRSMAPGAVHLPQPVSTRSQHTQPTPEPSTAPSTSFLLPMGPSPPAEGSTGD
Sequence of Biotinylated human TNFR2 protein (human) (P20333 23-257): as above

In assay [1], “human immunodeficiency virus 1 (HIV-1) (group M, subtype B, Isolate MN) gp120 Protein (from UniProt P05877 30-513) (natural protein)” yielded a dissociation constant (Kd) of 86.5 nM. In other words, the double-digit nanomolar range.

For the substance “recombinant TNFR2 protein (soluble, exogenous) (from UniProt P20333-1 23-257) (domain or fragment)”, in assay [2], the IC50 came out at 107 nM and the reduction in gp120 binding to Jurkat cells is 65%.
